{"source": "paper doi:10.1101/2025.11.10.687720", "about": "“Magnetosome organelles are organized through interactions between McaA and McaB that alter the dynamics of the bacterial actin-like protein MamK” (bioRxiv, 2025)", "biological_target": "the molecule itself", "experiment": "co-sedimentation; pelleting assay, each protein at 1 μM in polymerization buffer (10 mM Tris-HCl pH 7.5, 25 mM KCl, 2 mM MgCl2, 1 mM DTT) with or without 1 mM ATP, 25°C for 10 min, 100,000 x g for 30 min at 4°C; SDS-PAGE of pellet and supernatant"}
{"protein": "untagged recombinant MamK (natural protein, Magnetospirillum magneticum AMB-1, UniProt Q2W8Q6 1-347, looked up, MamK, bacterial actin-like protein; 37.6 kDa as printed; The monomeric fractions were pooled; the protein forms filaments with ATP; also called purified MamK; MamK filaments; source: E. coli BL21, purified (ammonium sulfate precipitation, anion exchange, gel filtration)) MSEGEGQAKNRLFLGIDLGTSHTAVMSSRGKKFLLKSVVGYPKDVIGLKLLGRPYVVGDEAFEMRSYLDIRYPLQDGVLSEISDRDIEVARHLLTHVVKSAEPGPNDEICAVIGVPARASAANKALLLKMAQEVVHTALVVSEPFMVGYGLDKLINTIIVDIGAGTTDICALKGTVPGPEDQVTLTKAGNYVDERLQNAILERHPELQMNVNVACAVKEQFSFVGTPTEVASFEFRAAGKPVRADVTEPVKIACEALMPDIIESIETLLRSFQPEYQATVLQNIVFAGGGSRIRGLAAYVKEKLRPFGDANVTCVKDPTFDGCRGALRLAEELPPQYWRQLGDVSGS", "values": [{"measurement": "binding result", "result": "binds"}]}
